Values belong to the molecule of their own block, whether it stands above or below them.
Tests used:
human serum albumin [1] = target: T1, human serum albumin (human, UniProt P02768 25-609); experiment: reflection interference spectroscopy, HSA sensor chip, 1000 µM peptide
T1 construct: Adsorbed on an unmodified silicon nitride sensor chip (HSA sensor chip) from a 0.2 µM solution; also called HSA

human serum albumin [2] = target: T1, human serum albumin; experiment: coefficient b of the two-exponential dissociation fit (Equation I), HSA sensor chip, 1000 µM peptide
human serum albumin [3] = target: T1, human serum albumin; experiment: reflection interference spectroscopy, HSA sensor chip, 2 µM peptide
Procedure: Then, a running buffer (0.1 M sodium phosphate buffer (pH 6.9)) was injected into a flow path formed between the substrate and the flow cell at a flow rate of 100 μL/min for 30 minutes or more so as to equilibrate the surface of the substrate. […] In injecting the running buffer or the sample, a liquid feeding pump for high-performance liquid chromatograph [product name: Prominence UFLC, manufactured by Shimadzu Corporation] and an autosampler [product name: Chromaster, manufactured by Hitachi, Ltd.] were used. As a result, a solid phase carrier having HSA immobilized on the surface thereon (hereinafter also referred to as “HSA sensor chip”) was obtained. In injecting the HSA solution into the flow path, the wavelength variation Δλ of bottom wavelength of the spectral reflectivity curve of the reflected light when the flow path was irradiated with white light was measured with time, whereby a sensorgram showing the time-dependent change of the wavelength variation Δλ was obtained.

human serum albumin [4] = target: T1, human serum albumin; experiment: reflection interference spectroscopy, HSA sensor chip, 1 µM peptide
human serum albumin [5] = target: T1, human serum albumin; experiment: reflection interference spectroscopy, HSA sensor chip, 100 µM peptide
Procedure: (§1) The wavelength variation Δλ of the bottom wavelength of the spectral reflectivity curve of the reflected light (the layer thickness change amount Δλ) when the flow path was irradiated with white light was measured with time, whereby a sensorgram was obtained.

human serum albumin [6] = target: T1, human serum albumin; experiment: reflection interference spectroscopy, HSA sensor chip, 50 µM peptide
human serum albumin [7] = target: T1, human serum albumin; experiment: coefficient b of the two-exponential dissociation fit (Equation I), HSA sensor chip, 10 µM peptide
Procedure: as §1

human serum albumin [8] = target: T1, human serum albumin; experiment: reflection interference spectroscopy, HSA sensor chip, 10 µM peptide
Procedure: as §1

human serum albumin [9] = target: T1, human serum albumin; experiment: reflection interference spectroscopy, HSA sensor chip, 10 µM lysozyme

koff (human serum albumin [1]): 0.00257 s⁻¹ | maximum layer thickness change amount Δλ (human serum albumin [1]): 0.027 nm | b value (human serum albumin [2]): 0.344
Molecule: (His) 3 (peptide)

binding result (human serum albumin [3]): binds
B1: ACTH partial peptide at the 1-24 positions (peptide)
peptide: SYSMEHFRWGKPVGKKRRPVKVYP
notes: Synthetic peptide from Biologica Co, Ltd; also called ACTH24

koff (human serum albumin [4]): 0.00016 s⁻¹
Molecule: GVPGLGVGAGV [ELN 11mer]

binding result (human serum albumin [3]): binds
Molecule: HHHHHHHHHHHHHHHHHHHH (also called (His)20) [histidine eicosa peptide]

binding result (human serum albumin [3]): binds
Molecule: RRRRRRRRRR (also called (Arg)10) [arginine decapeptide]

koff (human serum albumin [5]): 0.0002 s⁻¹
Molecule: KKKKKKKKKK [(Lys) 10]

binding result (human serum albumin [3]): binds
B2: ACTH partial peptide at the 1-41 positions (peptide)
peptide: GPSYSMEHFRWGKPVGKKRRPVKVYPNGAEDESAEAFPLEF
notes: Synthetic peptide from Biologica Co, Ltd; also called ACTH41

binding result (human serum albumin [3]): binds
B3: fibrinogen α (peptide)
peptide: DEAGSEADHEGTHSTKRGHAKSRPV
notes: Named as the protein, but a 25-residue peptide was used

koff (human serum albumin [6]): 0.0171 s⁻¹
Molecule: AWAVARLSQRFPK [IS 13mer]

b value (human serum albumin [7]): 0.093 | koff (human serum albumin [8]): 0.00073 s⁻¹ | maximum layer thickness change amount Δλ (human serum albumin [8]): 0.086 nm
Molecule: HHHHHHHHHH [(His) 10]

b value (human serum albumin [7]): 0.029 | koff (human serum albumin [8]): 0.0115 s⁻¹ | maximum layer thickness change amount Δλ (human serum albumin [8]): 0.061 nm
Molecule: YSMEHFRWGKPVGKK [ACTH15]

koff (human serum albumin [9]): 0.0066 s⁻¹
B4: Lysozyme (enzyme)
chain: KVYGRCELAAAMKRLGLDNFRGYSLGNWVCAAKFESNFNTHATNRNTDGSTDYGILQINSRWWCNDGRTPGSRNLCNIPCSALLSSDTIASVNCAKKIVSDGNGMNAWVAWRKRCKGTDVNAWTRGCRL

binding result (human serum albumin [3]): binds
B5: inter-α-trypsin inhibitor heavy chain 4 (peptide)
peptide: GESRNRNVHSGSTFFKYYLQGAKIPKPEASFS
notes: Named as the protein, but a 32-residue peptide was used; also called ITIH4

koff (human serum albumin [5]): 0.00493 s⁻¹
B6: Kininogen (peptide)
peptide: HNLGHGHKHERDQGHGHQR
notes: Named as the protein, but a 19-residue peptide was used

Source: US20160033500A1 (SYSMEX, published 2016)
